# Substitutions are numbered along the chain they refer to. *1 amine or outer side, *2 acyl side, *3 side chain or, on linkers, in order; H or OH if unused. Where no end group is shown, it is not given here. Side-chain parts run from the residue outwards. [ ]: non-standard residue; d: D form. The star is where a group is joined. C20 diacid = O=C(O)CCCCCCCCCCCCCCCCCCC(=O)*; C18 diacid = O=C(O)CCCCCCCCCCCCCCCCC(=O)*; γGlu = O=C(O)[C@H](CCC(=O)[*:2])N[*:1]; εLys = N[C@@H](CCCCN[*:1])C(=O)[*:2]; TRX = not defined here; AEEA = NCCOCCOCC(=O)O; Aib = CC(C)(N)C(=O)O
# T1: human neuropeptide Y2 receptor (human, UniProt P49146 1-381)
# T1 sequence (looked up): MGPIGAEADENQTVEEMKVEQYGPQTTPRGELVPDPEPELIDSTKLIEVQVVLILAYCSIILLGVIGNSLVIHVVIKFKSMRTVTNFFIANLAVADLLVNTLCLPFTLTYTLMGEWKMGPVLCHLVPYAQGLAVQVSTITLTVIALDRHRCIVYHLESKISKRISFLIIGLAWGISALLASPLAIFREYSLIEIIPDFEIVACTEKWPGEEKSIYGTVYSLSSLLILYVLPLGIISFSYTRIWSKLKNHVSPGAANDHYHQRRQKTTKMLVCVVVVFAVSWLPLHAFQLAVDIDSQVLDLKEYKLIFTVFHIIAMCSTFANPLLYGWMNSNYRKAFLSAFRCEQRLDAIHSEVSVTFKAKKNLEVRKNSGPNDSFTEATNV
# T2: human GIP receptor (human, UniProt P48546 22-466)
# T2 sequence (looked up): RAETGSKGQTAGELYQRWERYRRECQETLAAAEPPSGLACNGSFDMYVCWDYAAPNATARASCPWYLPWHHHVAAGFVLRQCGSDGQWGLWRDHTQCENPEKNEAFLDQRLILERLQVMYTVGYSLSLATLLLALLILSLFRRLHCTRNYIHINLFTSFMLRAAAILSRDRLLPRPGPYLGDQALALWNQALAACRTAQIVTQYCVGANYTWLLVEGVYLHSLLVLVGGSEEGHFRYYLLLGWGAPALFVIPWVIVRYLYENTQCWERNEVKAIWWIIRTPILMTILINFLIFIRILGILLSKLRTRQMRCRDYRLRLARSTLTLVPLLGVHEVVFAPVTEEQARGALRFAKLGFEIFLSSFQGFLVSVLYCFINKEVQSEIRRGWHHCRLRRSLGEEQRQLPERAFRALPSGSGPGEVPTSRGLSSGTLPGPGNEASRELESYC
# T3: human GIP receptor (human, UniProt P48546 22-466)
# T3 sequence (looked up): T2 sequence (looked up)
# B1: Compound 17 (peptide)
# peptide: YXEGTFTSDYSIXLEKQAQXAFVRHLINKXTRQRY
# modifications: Aib at 2, 13, 20, 30; NMeQ at 33; Lys29 epsilon-amino acylated with C18DA-gGlu-gGlu-gGlu-gGlu-gGlu-gGlu-eLys; C-terminal amide
# B2: Compound 76 (peptide)
# peptide: B1 peptide with V23I
# modifications: Aib at 2, 20, 30; aMeL at 13; Lys29 epsilon-amino acylated with C18DA-gGlu-gGlu-gGlu-gGlu-gGlu-gGlu-eLys; C-terminal amide
# B3: Compound 6 (peptide)
# peptide: B1 peptide with K16N
# modifications: Aib at 2, 13, 20, 30; Lys29 epsilon-amino acylated with C18DA-gGlu-gGlu-gGlu-gGlu-gGlu-gGlu-eLys; C-terminal amide
# B4: Compound 75 (peptide)
# peptide: B1 peptide with K16E
# modifications: Aib at 2, 13, 20, 30; Lys29 epsilon-amino acylated with C18DA-gGlu-gGlu-gGlu-gGlu-gGlu; C-terminal amide
# B5: Compound 55 (peptide)
# peptide: B1 peptide with E15D, K16A
# modifications: Aib at 2, 13, 20, 30; Lys29 epsilon-amino acylated with C18DA-gGlu-gGlu-gGlu-gGlu-gGlu-gGlu-eLys; C-terminal amide
# B6: Compound 61 (peptide)
# peptide: B1 peptide with X20A
# modifications: Aib at 2, 13, 30; Lys29 epsilon-amino acylated with C18DA-gGlu-gGlu-gGlu-gGlu-gGlu-gGlu-eLys; C-terminal amide
# B7: Compound 4 (peptide)
# peptide: B1 peptide with Q17A
# modifications: Aib at 2, 13, 20, 30; Lys29 epsilon-amino acylated with C20DA-gGlu-gGlu-gGlu-gGlu-gGlu-gGlu-eLys; C-terminal amide
# B8: Compound 40 (peptide)
# peptide: B1 peptide with E15D, K16E
# modifications: Aib at 2, 13, 20, 30; Lys29 epsilon-amino acylated with C18DA-gGlu-gGlu-gGlu-gGlu-gGlu-gGlu-eLys; C-terminal amide
# B9: Compound 84 (peptide)
# peptide: B1 peptide with Q19Y
# modifications: Aib at 2, 13, 20, 30; Lys29 epsilon-amino acylated with C18DA-gGlu-gGlu-gGlu-gGlu-gGlu-gGlu-eLys; C-terminal amide
# B10: Compound 50 (peptide)
# peptide: B1 peptide with H25Q
# modifications: Aib at 2, 13, 20, 30; Lys29 epsilon-amino acylated with C18DA-gGlu-gGlu-gGlu-gGlu-gGlu; C-terminal amide
# B11: Compound 83 (peptide)
# peptide: B1 peptide with A21E, X30L
# modifications: Aib at 2, 13, 20; Lys29 epsilon-amino acylated with C18DA-gGlu-gGlu-gGlu-gGlu-gGlu-gGlu-eLys; C-terminal amide
# B12: Compound 1 (peptide)
# peptide: B1 peptide with Y10L
# modifications: Aib at 2, 13, 20, 30; Lys29 epsilon-amino acylated with C20DA-gGlu-gGlu-gGlu-gGlu-gGlu-AHX-AHX; C-terminal amide
# B13: Compound 39 (peptide)
# peptide: B1 peptide with A21E, X30L
# modifications: Aib at 2, 13, 20; Lys29 epsilon-amino acylated with C20DA-gGlu-gGlu-gGlu-gGlu-gGlu-gGlu-eLys; C-terminal amide
# B14: Compound 66 (peptide)
# peptide: B1 peptide with X30I
# modifications: Aib at 2, 13, 20; Lys29 epsilon-amino acylated with C18DA-gGlu-gGlu-gGlu-gGlu-gGlu-gGlu-eLys; C-terminal amide
# B15: Compound 69 (peptide)
# peptide: B1 peptide with X30L
# modifications: Aib at 2, 13, 20; Lys29 epsilon-amino acylated with C18DA-gGlu-gGlu-gGlu-gGlu-gGlu-AHX; C-terminal amide
# B16: Compound 5 (peptide)
# peptide: B1 peptide with K16X
# modifications: Aib at 2, 13, 16, 20, 30; Lys29 epsilon-amino acylated with C18DA-gGlu-gGlu-gGlu-gGlu-gGlu-gGlu-eLys; C-terminal amide
# B17: Compound 65 (peptide)
# peptide: B1 peptide with K16L
# modifications: Aib at 2, 13, 20, 30; Lys29 epsilon-amino acylated with C18DA-gGlu-gGlu-gGlu-gGlu-gGlu-gGlu-eLys; C-terminal amide
# B18: Compound 169 (peptide)
# peptide: B1 peptide with Y10L
# modifications: Aib at 2, 13, 20, 30; Lys29 epsilon-amino: C18DA-gGlu-gGlu-gGlu-gGlu-gGlu-gGlu-eLys; C-terminal amide
# B19: Compound 102 (peptide)
# peptide: B1 peptide with E15D, V23I
# modifications: Aib at 2, 13, 20, 30; Lys29 epsilon-amino: C18DA-gGlu-gGlu-gGlu-gGlu-gGlu-gGlu-eLys; C-terminal amide
# Target: T1, human neuropeptide Y2 receptor
# Assay: cell-based or functional assay
Binder,"EC50, CreLuc reporter, 0.5% hP [nM]","EC50, CreLuc reporter, 100% hP [nM]"
Y[Aib]EGTFTSDYSI[Aib]LEEEAQ[Aib]EFVRHLINK([γGlu-γGlu-γGlu-γGlu-C18 diacid])[Aib]TRQRY-NH2 [Compound 64],162,720
Y[Aib]EGTFTSDYSI[Aib]LEKQAQ[Aib]EFVRHLINK([εLys-γGlu-γGlu-γGlu-γGlu-γGlu-γGlu-γGlu-C18 diacid])LTRQRY-NH2 [Compound 32],17.1,44.6
Y[Aib]EGTFTSDYSI[Aib]LEKQAQ[Aib]AFVRHLINK([γGlu-γGlu-γGlu-γGlu-γGlu-γGlu-TRX-C18 diacid])[Aib]TRQRY-NH2 (reading uncertain) [Compound 31],76.4,131
Y[Aib]EGTFTSDYSI[Aib]LEKQAQ[Aib]EFVRHLINK([AEEA-AEEA-γGlu-γGlu-γGlu-γGlu-C18 diacid])[Aib]TRQRY-NH2 [Compound 73],–,136
Y[Aib]EGTFTSDYSI[Aib]LEKQAQ[Aib]AFVRHLINK([εLys-γGlu-γGlu-γGlu-γGlu-γGlu-γGlu-γGlu-C20 diacid])[Aib]TRQRY-NH2 [Compound 35],22.9,–
Y[Aib]EGTFTSDYSI[Aib]LEKQAE[Aib]AFVRHLINK([εLys-εLys-γGlu-γGlu-γGlu-γGlu-γGlu-γGlu-C20 diacid])[Aib]TRQRY-NH2 [Compound 82],–,75.1
Y[Aib]EGTFTSDYSI[Aib]LEKQAQ[Aib]EFVRHLINK([γGlu-γGlu-γGlu-γGlu-C18 diacid])[Aib]TRQRY-NH2 [Compound 79],57.9,99.1
B1,29.4,–
B2,7.2,24.3
B3,14.7,51
B4,191,904
B5,18.3,108
B6,24.1,42.1
B7,17.7,194
B8,16.2,59.4
B9,18.5,55
B10,335,522
B11,16.8,31.7
B12,12.6,127
B13,10.8,119
B14,9.8,99.3
B15,7,56
B16,28.6,89.4
B17,65.8,406
Y[Aib]EGTFTSDLSI[Aib]LEKQAQ[Aib]AFVRHLINK([γGlu-εLys-γGlu-γGlu-γGlu-γGlu-γGlu-C20 diacid])[Aib]TRQRY-NH2 [Compound 60],–,124

# Target: T2, human GIP receptor
# Assay: cell-based or functional assay
Binder,"EC50, CreLuc reporter, 0.5% hP [nM]","EC50, CreLuc reporter, 100% hP [nM]"
Y[Aib]EGTFTSDYSI[Aib]LEEEAQ[Aib]EFVRHLINK([γGlu-γGlu-γGlu-γGlu-C18 diacid])[Aib]TRQRY-NH2 [Compound 64],0.5,–
Y[Aib]EGTFTSDYSI[Aib]LEKQAQ[Aib]EFVRHLINK([εLys-γGlu-γGlu-γGlu-γGlu-γGlu-γGlu-γGlu-C18 diacid])LTRQRY-NH2 [Compound 32],0.5,6.5
Y[Aib]EGTFTSDYSI[Aib]LEKQAQ[Aib]AFVRHLINK([γGlu-γGlu-γGlu-γGlu-γGlu-γGlu-TRX-C18 diacid])[Aib]TRQRY-NH2 (reading uncertain) [Compound 31],–,14.9
Y[Aib]EGTFTSDYSI[Aib]LEKQAQ[Aib]EFVRHLINK([AEEA-AEEA-γGlu-γGlu-γGlu-γGlu-C18 diacid])[Aib]TRQRY-NH2 [Compound 73],0.4,5.9
Y[Aib]EGTFTSDYSI[Aib]LEKQAQ[Aib]AFVRHLINK([εLys-γGlu-γGlu-γGlu-γGlu-γGlu-γGlu-γGlu-C20 diacid])[Aib]TRQRY-NH2 [Compound 35],0.7,–
Y[Aib]EGTFTSDYSI[Aib]LEKQAE[Aib]AFVRHLINK([εLys-εLys-γGlu-γGlu-γGlu-γGlu-γGlu-γGlu-C20 diacid])[Aib]TRQRY-NH2 [Compound 82],–,11.7
Y[Aib]EGTFTSDYSI[Aib]LEKQAQ[Aib]EFVRHLINK([γGlu-γGlu-γGlu-γGlu-C18 diacid])[Aib]TRQRY-NH2 [Compound 79],–,4.7
B1,–,2
B2,–,0.5
B3,0.7,7.3
B4,0.3,13.2
B5,0.4,7
B6,0.4,–
B7,0.3,11.5
B8,0.3,–
B9,5,48.4
B10,0.7,23.3
B11,0.4,–
B12,0.2,10.3
B13,0.9,22.9
B14,0.2,–
B15,0.2,5.5
B16,–,25
B17,0.7,16.8
Y[Aib]EGTFTSDLSI[Aib]LEKQAQ[Aib]AFVRHLINK([γGlu-εLys-γGlu-γGlu-γGlu-γGlu-γGlu-C20 diacid])[Aib]TRQRY-NH2 [Compound 60],0.3,8

# Target: T3, human GIP receptor
# Assay: cell-based or functional assay
Binder,"EC50, CreLuc reporter, 0.5% hP [nM]","EC50, CreLuc reporter, 100% hP [nM]"
B18,0.4,–
B19,0.1,2.8
